What was measured:
[1] = target: laminin (Engelbreth-Holm-Swarm tumor laminin, free of entactin) (mouse (endogenous in EHS tumor)) (UniProt P19137); test: sedimentation assay of polymerization
[2] = target: laminin/entactin complex (laminin-nidogen complex) of the EHS tumor (mouse (endogenous in EHS tumor)) (UniProt P19137); test: sedimentation assay of polymerization
[3] = target: laminin/entactin complex (laminin-nidogen complex) of the EHS tumor (mouse (endogenous in EHS tumor)) (UniProt P19137); test: extraction of laminin from tissue matrix

| critical concentration of polymerization [1] [mg/mL] | critical concentration of polymerization [2] [mg/mL] | concentration of free laminin over the EHS matrix in buffer at 37 C [3] [mg/mL] | percent of total laminin of the EHS matrix extracted by 10 mM EDTA [3] [%] | Substance |
| --- | --- | --- | --- | --- |
| 0.1 | – | – | – | laminin (Engelbreth-Holm-Swarm tumor laminin, free of entactin), P19137 25-3083; P02469 22-1786; P02468 34-1607 |
| – | 0.1 | 0.08 | 79 | laminin/entactin complex (laminin-nidogen complex) of the EHS tumor, P19137 25-3083; P02469 22-1786; P02468 34-1607; P10493 29-1245 |

Reference: article PMC2289474
